The text below walks through data of patent US20220119490A1 (Genentech, published 2022).

First the molecules themselves.
T1: AXL extracellular domain (human, UniProt P30530 26-451)
T1 construct: extracellular domain; Biotinylated ectodomain on streptavidin sensors in BLI; streptavidin tetramer in the cell assay; also called UFO; tyrosine-protein kinase receptor AXL
T1 sequence (looked up): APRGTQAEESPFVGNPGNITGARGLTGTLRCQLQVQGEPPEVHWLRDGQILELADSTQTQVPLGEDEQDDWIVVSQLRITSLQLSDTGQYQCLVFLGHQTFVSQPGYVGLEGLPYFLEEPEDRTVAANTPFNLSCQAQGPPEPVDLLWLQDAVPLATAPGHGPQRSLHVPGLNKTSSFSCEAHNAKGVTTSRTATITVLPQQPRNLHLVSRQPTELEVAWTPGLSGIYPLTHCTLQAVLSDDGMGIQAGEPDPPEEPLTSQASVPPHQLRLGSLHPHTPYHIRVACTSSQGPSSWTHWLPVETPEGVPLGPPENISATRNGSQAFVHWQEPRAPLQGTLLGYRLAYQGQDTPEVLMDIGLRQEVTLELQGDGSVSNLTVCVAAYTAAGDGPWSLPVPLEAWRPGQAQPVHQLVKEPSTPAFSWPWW

T2: PD-L2 extracellular domain (human, UniProt Q9BQ51 20-220)
T2 construct: extracellular domain; ECD construct; also called PDCD1LG2; programmed cell death 1 ligand 2
T2 sequence (looked up): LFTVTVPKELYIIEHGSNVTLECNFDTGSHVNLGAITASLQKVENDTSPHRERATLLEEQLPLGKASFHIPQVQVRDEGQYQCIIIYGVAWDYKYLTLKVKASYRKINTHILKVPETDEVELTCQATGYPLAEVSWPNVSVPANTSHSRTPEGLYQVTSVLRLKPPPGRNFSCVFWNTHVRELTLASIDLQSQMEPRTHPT

B1: CNTN5 expressed on cells (receptor, human, UniProt O94779 19-1072, looked up)
chain: EYSKSLPGLSTSYAALLRIKKSSSSSLFGSKTRPRYSSPSLGTLSASSPSWLGAAQNYYSPINLYHSSDAFKQDESVDYGPVFVQEPDDIIFPTDSDEKKVALNCEVRGNPVPSYRWLRNGTEIDLESDYRYSLIDGTFIISNPSEAKDSGHYQCLATNTVGSILSREATLQFAYLGNFSGRTRSAVSVREGQGVVLMCSPPPHSPEIIYSWVFNEFPSFVAEDSRRFISQETGNLYISKVQTSDVGSYICLVKNTVTNARVLSPPTPLTLRNDGVMGEYEPKIEVHFPFTVTAAKGTTVKMECFALGNPVPTITWMKVNGYIPSKARLRKSQAVLEIPNVQLDDAGIYECRAENSRGKNSFRGQLQVYTYPHWVEKLNDTQLDSGSPLRWECKATGKPRPTYRWLKNGVPLSPQSRVEMVNGVLMIHNVNQSDAGMYQCLAENKYGAIYASAELKILASAPTFALNQLKKTIIVTKDQEVVIECKPQGSPKPTISWKKGDRAVRENKRIAILPDGSLRILNASKSDEGKYVCRGENVFGSAEIIASLSVKEPTRIELTPKRTELTVGESIVLNCKAIHDASLDVTFYWTLKGQPIDFEEEGGHFESIRAQASSADLMIRNILLMHAGRYGCRVQTTADSVSDEAELLVRGPPGPPGIVIVEEITESTATLSWSPAADNHSPISSYNLQARSPFSLGWQTVKTVPEIITGDMESAMAVDLNPWVEYEFRVVATNPIGTGDPSTPSRMIRTNEAVPKTAPTNVSGRSGRRHELVIAWEPVSEEFQNGEGFGYIVAFRPNGTRGWKEKMVTSSEASKFIYRDESVPPLTPFEVKVGVYNNKGDGPFSQIVVICSAEGEPSAAPTDVKATSVSVSEILVAWKHIKESLGRPQGFEVGYWKDMEQEDTAETVKTRGNESFVILTGLEGNTLYHFTVRAYNGAGYGPPSSEVSATTKKSPPSQAPSNLRWEQQGSQVSLGWEPVIPLANESEVVGYKVFYRQEGHSNSQVIETQKLQAVVPLPDAGVYIIEVRAYSEGGDGTASSQIRVPSYSGGKITS
notes: whole, on cells; also called contactin 5
B2: IL1RL1 extracellular domain (receptor, human, UniProt Q01638 19-328, looked up)
chain: KFSKQSWGLENEALIVRCPRQGKPSYTVDWYYSQTNKSIPTQERNRVFASGQLLKFLPAAVADSGIYTCIVRSPTFNRTGYANVTIYKKQSDCNVPDYLMYSTVSGSEKNSKIYCPTIDLYNWTAPLEWFKNCQALQGSRYRAHKSFLVIDNVMTEDAGDYTCKFIHNENGANYSVTATRSFTVKDEQGFSLFPVIGAPAQNEIKEVEIGKNANLTCSACFGKGTQFLAAVLWQLNGTKITDFGEPRIQQEEGQNQSFSNGLACLDMVLRIADVKEEDLLLQYDCLALNLHGLRRHTVRLSRKNPIDHHS
notes: extracellular domain; Soluble analyte in BLI
B3: CHL1 extracellular domain (receptor, human, UniProt O00533 25-1082, looked up)
chain: IEIPSSVQQVPTIIKQSKVQVAFPFDEYFQIECEAKGNPEPTFSWTKDGNPFYFTDHRIIPSNNSGTFRIPNEGHISHFQGKYRCFASNKLGIAMSEEIEFIVPSVPKFPKEKIDPLEVEEGDPIVLPCNPPKGLPPLHIYWMNIELEHIEQDERVYMSQKGDLYFANVEEKDSRNDYCCFAAFPRLRTIVQKMPMKLTVNSSNSIKQRKPKLLLPPTESGSESSITILKGEILLLECFAEGLPTPQVDWNKIGGDLPKGRETKENYGKTLKIENVSYQDKGNYRCTASNFLGTATHDFHVIVEEPPRWTKKPQSAVYSTGSNGILLCEAEGEPQPTIKWRVNGSPVDNHPFAGDVVFPREISFTNLQPNHTAVYQCEASNVHGTILANANIDVVDVRPLIQTKDGENYATVVGYSAFLHCEFFASPEAVVSWQKVEEVKPLEGRRYHIYENGTLQINRTTEEDAGSYSCWVENAIGKTAVTANLDIRNATKLRVSPKNPRIPKLHMLELHCESKCDSHLKHSLKLSWSKDGEAFEINGTEDGRIIIDGANLTISNVTLEDQGIYCCSAHTALDSAADITQVTVLDVPDPPENLHLSERQNRSVRLTWEAGADHNSNISEYIVEFEGNKEEPGRWEELTRVQGKKTTVILPLAPFVRYQFRVIAVNEVGRSQPSQPSDHHETPPAAPDRNPQNIRVQASQPKEMIIKWEPLKSMEQNGPGLEYRVTWKPQGAPVEWEEETVTNHTLRVMTPAVYAPYDVKVQAINQLGSGPDPQSVTLYSGEDYPDTAPVIHGVDVINSTLVKVTWSTVPKDRVHGRLKGYQINWWKTKSLLDGRTHPKEVNILRFSGQRNSGMVPSLDAFSEFHLTVLAYNSKGAGPESEPYIFQTPEGVPEQPTFLKVIKVDKDTATLSWGLPKKLNGNLTGYLLQYQIINDTYEIGELNDINITTPSKPSWHLSNLNATTKYKFYLRACTSQGCGKPITEESSTLGEGSKGIGKISGVNLTQKTHPIEVFEPGAEHIVRLMTKNWGDNDSIFQDVIETRGREYAGLYDDISTQGW
notes: extracellular domain; Soluble query (streptavidin tetramer) in cell assays; recombinant protein (R&D) in SPR; also called neural cell adhesion molecule L1-like protein; close homolog of L1
B4: TNFRS11A_DNA742118 (receptor, human, UniProt Q9Y6Q6 30-212, looked up)
extracellular domain construct of the screen: IAPPCTSEKHYEHLGRCCNKCEPGKYMSSKCTTTSDSVCLPCGPDEYLDSWNEEDKCLLHKVCDTGKALVAVVAGNSTTPRRCACTAGYHWSQDCECCRRNTECAPGLGAQHPLQLNKDTVCKPCLAGYFSDAFSSTDKCRPWTNCTFLGKRVEHHGTEKSDAVCSSSLPARKPPNEPHVYLP
notes: extracellular domain; also called TNFRSF11A

Assay [1] deals with B3. Kind of assay: cell surface interaction assay: streptavidin-tetramerized biotinylated ECD on transfected cells, immunofluorescence.
A further assay has as its target T1, AXL extracellular domain. Kind of assay: biolayer interferometry, biotinylated AXL ectodomain on streptavidin sensors, IL1RL1 ectodomain in solution. How it is done:
Interactions between AXL and the binding partners IL1RL1 and Gas6 were assayed by biolayer interferometry using an Octet Red system, as previously described (Husain et al., Mol Cell Proteomics, 18: 2310-2323, 2019). […] Data were analyzed using Forte Pall (Port Washington, N.Y.) software 9.0.
On the technique in general: Biolayer interferometry detects binding as a change in optical thickness at a sensor tip.

The target of a further assay is T3, L1CAM expressed on cells (human, UniProt P32004 20-1257).
T3 construct: whole, on cells; also called L1 cell adhesion molecule
The experiment in a line: cell surface interaction assay: streptavidin-tetramerized biotinylated ECD on transfected cells, immunofluorescence. The text has this:
FIG. 3H is a schematic showing the design of the cell surface interaction assay.

In assay [2] the target is T2, PD-L2 extracellular domain. Kind of assay: extracellular interaction screen, normalized intensity; labelled dot against the clone named on the axis; which is query and which prey is not given; colour of the predicted class lost.

T3 sequence (P32004 20-1257): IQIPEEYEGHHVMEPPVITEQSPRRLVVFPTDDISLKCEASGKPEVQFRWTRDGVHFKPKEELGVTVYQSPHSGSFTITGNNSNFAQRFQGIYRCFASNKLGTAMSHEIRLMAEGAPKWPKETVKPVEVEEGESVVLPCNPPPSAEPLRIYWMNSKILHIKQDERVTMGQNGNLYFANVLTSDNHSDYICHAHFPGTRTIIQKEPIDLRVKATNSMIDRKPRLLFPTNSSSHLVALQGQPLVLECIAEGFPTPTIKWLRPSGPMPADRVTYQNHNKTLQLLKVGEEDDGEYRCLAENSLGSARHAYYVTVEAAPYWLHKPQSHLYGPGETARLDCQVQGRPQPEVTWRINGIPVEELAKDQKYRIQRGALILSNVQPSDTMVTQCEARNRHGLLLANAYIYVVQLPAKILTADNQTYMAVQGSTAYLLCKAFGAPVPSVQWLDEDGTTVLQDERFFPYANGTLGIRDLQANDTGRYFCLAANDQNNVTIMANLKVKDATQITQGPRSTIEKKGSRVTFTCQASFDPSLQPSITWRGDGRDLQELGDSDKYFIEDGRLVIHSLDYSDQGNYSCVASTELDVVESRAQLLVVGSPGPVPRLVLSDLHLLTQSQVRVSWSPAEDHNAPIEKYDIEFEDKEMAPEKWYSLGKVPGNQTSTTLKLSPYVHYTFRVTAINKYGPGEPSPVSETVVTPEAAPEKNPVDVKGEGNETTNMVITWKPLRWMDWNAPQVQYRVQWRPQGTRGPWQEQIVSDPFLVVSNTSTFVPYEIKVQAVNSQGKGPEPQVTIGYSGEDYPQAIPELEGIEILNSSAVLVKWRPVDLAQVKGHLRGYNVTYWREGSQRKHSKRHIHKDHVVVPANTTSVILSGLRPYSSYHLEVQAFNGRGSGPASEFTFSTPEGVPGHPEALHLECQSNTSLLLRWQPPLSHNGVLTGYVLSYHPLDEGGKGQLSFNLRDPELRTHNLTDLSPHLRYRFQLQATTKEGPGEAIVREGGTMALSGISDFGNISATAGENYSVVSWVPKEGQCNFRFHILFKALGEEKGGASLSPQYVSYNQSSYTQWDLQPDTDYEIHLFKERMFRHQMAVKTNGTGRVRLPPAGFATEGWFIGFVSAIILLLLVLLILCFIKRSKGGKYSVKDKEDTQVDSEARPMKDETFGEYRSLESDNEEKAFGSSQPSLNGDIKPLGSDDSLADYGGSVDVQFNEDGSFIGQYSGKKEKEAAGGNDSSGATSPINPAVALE

B1: the binding result in assay [1] is recorded as “binds”.
With B2, the binding result in the assay with AXL extracellular domain is given as “binds”.
For the molecule B3, the binding result in the assay with L1CAM expressed on cells is listed as “binds”.
Take B4: the binding result in assay [2] is “binds”.
